This is an account of results in patent US7390643B2, “Geranyl diphosphate synthase molecules, and nucleic acid molecules encoding same” (Washington State University Research Foundation, priority 2002, dated 2008).

The test system of data set [1] is C=C(C)CCO[P@@](=O)(O)OP(=O)(O)O. Briefly: purified protein, by the assay type. The note with it: 70.0 °C; for kcat: other: IPP and DMAPP as co-substrates, MgCl2 cofactor; for Km: other: apparent, at saturating concentrations of DMAPP (350 mM [sic]), means ± SD of three determinations.
Method: (§1) The assay procedures and methods for product analysis were similar to those previously described (C. Burke and R. Croteau, J. Biol. Chem. 277:3141-3149, 2002), except that for radio-GC a Raga (Raytest) radio-detector connected in-line to a Series 600 (Gow-Mac) chromatograph was employed with a 5% phenyl polysiloxane (ZB-5; Phenomenex) capillary column under hydrogen gas flow (70° C. for 5 min. followed by an 8° C. per min. ramp to 240° C. for 5 min).
(§2) Molecular weight determination and kinetic evaluation. […] For kinetic evaluation, the standard prenyltransferase assay was performed (C. Burke and R. Croteau, J. Biol. Chem. 277:3141-3149, 2002) but the reaction was terminated after 4 min. to ensure linearity in the rate measurements.
(§3) Kinetic characterization of the GPP synthases (SEQ ID NOS:12, 16, and 20).
Data set [2] deals with CC(C)=CCOP(=O)(O)OP(=O)(O)O. Briefly: purified protein, by the assay type. The note with it: other: apparent; at saturating concentrations of IPP (212 mM [sic]); means ± SD of three determinations; 70.0 °C.
Method: as §1, §2, §3

The term kcat denotes the maximal rate divided by the concentration of active sites. By Km is commonly meant the concentration of substrate that gives half-maximal velocity.

Where “and” joins values, the source holds several entries; their conditions need not be identical. Identical values can stand only once.

For the substance “Grand fir (Abies grandis) geranyl diphosphate synthase AgGPPS2, N-terminally truncated (E86M), C-terminal His6 tag, SEQ ID NO: 12 (Abies grandis; E86M)”, the turnover number (kcat) in data set [1] worked out at 1.8 s⁻¹. In addition, the Km in data set [1] came out at 55 ± 4 µM; in data set [2], 90 ± 1 µM.

“Grand fir (Abies grandis) geranyl diphosphate synthase AgGPPS3, N-terminally truncated (E92M), C-terminal His6 tag, SEQ ID NO: 20 (Abies grandis; E92M)”: in data set [1], the kcat is 0.47 s⁻¹ and 0.5 ± 0.1 s⁻¹; the Km worked out at 44 ± 7 µM. Further, the Michaelis-Menten constant (Km) in data set [2] is 82 ± 5 µM.

As to “Grand fir (Abies grandis) geranyl diphosphate synthase AgGPPS1, N-terminally truncated (E88M), C-terminal His6 tag, SEQ ID NO: 16 (Abies grandis; E88M)”, in data set [1], the kcat was 1.6 s⁻¹ and the Km was determined as 44 ± 5 µM. For the same substance, the Km in data set [2] is 163 ± 13 µM.
